Read-outs that look alike come from different tables or passages of the source.
Legend:
[1] = target: T1, human CD8αα homodimer, recombinant protein (Acro Biosystems) (human, UniProt P01732 22-182); assay: BLI steady state, whole hIgG1-LALAPA antibody on CD8α-His (Ni-NTA sensor), 30 °C
T1 construct: also called CD8αα antigen; biotinylated CD8α recombinant protein (CDA-H82E3)

[2] = target: T1, human CD8αα homodimer, recombinant …; assay: BLI steady state analysis, whole antibody, sample stressed at pH 8.5, 40 °C, 7 days
Method: To assess affinity of whole antibodies, steady state analysis was used as the bivalent nature of both whole antibody and CD8α complicates kinetic analysis. 50 nM CD8α-His (that is, CD8α with a C-terminal oligohistidine tag; Acro) was immobilized on Ni-NTA sensor probes. Binding was analyzed with a three-fold antibody dilutions series: 60 nM, 20 nM, 6.67 nM, 2.22 nM, 0.74 nM, and 0.25 nM. The antigen-loaded sensors were incubated in the diluted solutions to capture the whole IgG antibody for 300 s to record the association phase. Sensors were incubated in the kinetic buffer for 900 s to record the dissociation phase. The spin speed was 1000 rpm for all steps except the antigen loading step which was 400 rpm to control density of the antigen. The temperature of the performed assays was at 30° C. during the association and dissociation phases. The sensor data were baseline subtracted and further analyzed in GatorOne software (version 2.10) to determine the equilibrium dissociation constants (KD) of the antibodies by fitting the signals of the steady states to the 1:1 binding model.

[3] = target: T1, human CD8αα homodimer, recombinant …; assay: BLI binding kinetic analysis, whole antibody, sample kept at pH 7.2, 4C (unstressed)
[4] = target: T1, human CD8αα homodimer, recombinant …; assay: BLI binding kinetic analysis, whole antibody, sample stressed at pH 8.5, 40 °C, 7 days
[5] = target: T2, human CD8 on cells (CD8-overexpressing HEK293T cells, SupT1, HPB-ALL, human T cells, transfected HEK293 of … (human, UniProt P01732 22-235)); assay: flow cytometry, Human Expanded T cells Donor 6, gated on live CD8 T cells (via CD3+CD4-)
T2 construct: whole, on cells; also called cell surface CD8
Method: (§1) To obtain the results shown in FIG. 8A and FIG. 8B, 5×10⁴ expanded primary T cells (human, cynomolgus macaque or rhesus monkey) were thawed and transferred to a V bottom 96-well culture plate (Corning). Cells were washed twice with Cell Staining buffer (#420201, Biolegend). Each anti-CD8α antibody was diluted in four-fold antibody titration series from 60 μg/mL to 0.057 ng/mL into Cell Staining buffer. Cells were stained with each diluted antibody solution for 30 minutes on ice. Cells were then washed three times with Cell Staining buffer and primary antibody binding was detected by staining with anti-human Fc BV421 conjugate antibody (#410704, Biolegend) at 1:200 dilution for 30 minutes on ice. […] Flow cytometry data was analyzed by Flowjo 10 (Becton, Dickinson & Company) to measure the geometric median fluorescence intensity (gMFI) of the on-cell binding from each antibody. The gMFI values were normalized with the gMFI measured in the sample stained with only the secondary detection antibody and plotted against the concentration of the added antibodies. The binding curves were constructed using Graphpad Prism software, and EC₅₀ values were determined by non-linear curve fitting.

[6] = target: T2, human CD8 on cells (CD8-overexpressing …); assay: as above; remark: listed apart in the source
Method: as §1

[7] = target: T3, rhesus macaque CD8 on expanded primary T cells (rhesus macaque); assay: flow cytometry, Rhesus Expanded T cells Donor 9, gated on live CD8 T cells (via CD3+CD4-)
T3 construct: also called CD4- CD8+ rhesus T cells
Method: as §1

[8] = target: T2, human CD8 on cells (CD8-overexpressing …); assay: flow cytometry, Human Expanded T cells Donor 5, gated on CD4- T cells, anti-human Fc BV421
Method: (§2) Binding was measured by fluorescence from the BV421 fluorophore-conjugated anti-human Fc secondary antibody that recognize the binders. The gMFI was normalized to the gMFI of the secondary antibody in the absence of the anti-CD8α binders.
as §1, with “Cells were stained with each diluted antibody solution for 30 minutes on ice.” left out

[9] = target: T3, rhesus macaque CD8 on expanded primary …; assay: flow cytometry, Rhesus Expanded T cells Donor 8, gated on CD4- T cells, anti-human Fc BV421
Method: as §2
as §1, with “Cells were stained with each diluted antibody solution for 30 minutes on ice.” left out

T2 sequence (P01732 22-235): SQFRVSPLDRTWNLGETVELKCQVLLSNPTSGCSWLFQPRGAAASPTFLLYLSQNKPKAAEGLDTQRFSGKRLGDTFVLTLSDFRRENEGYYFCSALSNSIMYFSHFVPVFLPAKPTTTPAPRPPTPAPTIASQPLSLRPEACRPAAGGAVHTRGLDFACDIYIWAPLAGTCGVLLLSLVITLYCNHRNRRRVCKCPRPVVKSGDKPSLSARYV
T1 sequence (P01732 22-182 limits assumed): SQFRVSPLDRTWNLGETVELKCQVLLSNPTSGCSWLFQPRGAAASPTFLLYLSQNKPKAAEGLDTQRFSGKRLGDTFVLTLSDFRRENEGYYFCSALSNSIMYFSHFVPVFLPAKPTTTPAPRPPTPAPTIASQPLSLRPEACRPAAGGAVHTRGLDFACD

B1: CBD1033 whole antibody, human IgG1 with Fc-silencing mutations L234A, L235A and P329A (CBD1033-hIgG1-LALAPA) (antibody, V domains shown)
VH: QVQLVQSGAEVKKPGASVKVSCKASRYTFTDYNLHWVRQAPGQGLEWMGFIYPYNGGTGYAQKFQGRVTMTVDTSTSTAYMELSSLRSEDTAVYYCARDHRYNEGVSFDYWGQGTTVTVSS
VL: DIQLTQSPSSLSASVGDRATITCRASESVDGFGNSFMNWYQQKPGKAPKLLIYLASNLESGVPSRFSGSGSGTDFTLTISSVQPEDFATYYCQQNNEDPYTFGQGTKLEIKR
notes: On tLNPs the antibody was SATA-modified or AJICAP-thiolated (CBD1033.29) and conjugated to the LNP; also called CBD1033.3; CBD1033 IgG1
[1]
  Kd: 2270 pM
[2]
  Kd: 2120 pM
[3]
  Kd: 1660 pM
  koff: 0.00308 s⁻¹
  kon: 1.85e+06 M⁻¹ s⁻¹
[4]
  Kd: 2190 pM
  koff: 0.00309 s⁻¹
  kon: 1.41e+06 M⁻¹ s⁻¹
[5]
  EC50: 0.112 µg/mL
[6]
  EC50: 767 pM
[7]
  EC50: 0.145 µg/mL
[8]
  EC50 (read off the curve): ~0.1 µg/mL
[9]
  EC50 (read off the curve): ~0.1 µg/mL

B2: CBD1017ch whole antibody (chimeric CT8 antibody) (antibody, V domains shown)
VH: EVQLQQSGPELVKPGASVKISCKASRYTFTDYNLHWVKLSHEKSLEWIGFIYPYNGGTGYNQKFKNKAKLTVDYSSSTAYMELRSLTSVDAAVYYCARDHRYNEGVSFDYWGQGTTLTVSS
VL: NIVLTQSPASLAVSLGQRATISCRASESVDGFGNSFMNWYQQKPGQSPKLLIYLASNLESGVPARFSGSGSRTDFTLTIDPVEADDAATYYCQQNNEDPYTFGGGTKLEIK
notes: Chimeric antibody comprising the variable regions of the donor antibody CT8; detected with anti-human Fc
[1]
  Kd: 580 pM
[2]
  Kd: 530 pM
[3]
  Kd: 430 pM
  koff: 0.000655 s⁻¹
  kon: 1.53e+06 M⁻¹ s⁻¹
[4]
  Kd: 550 pM
  koff: 0.000795 s⁻¹
  kon: 1.45e+06 M⁻¹ s⁻¹
[5]
  EC50: 0.052 µg/mL
[6]
  EC50: 356 pM
[7]
  EC50: 0.045 µg/mL
[8]
  EC50 (read off the curve): ~0.05 µg/mL
[9]
  EC50 (read off the curve): ~0.05 µg/mL
